From a protein production outcome set (Wang et al. 2014)

Assay: label from the status in PepcDB records
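Also: failed if final PepcDB status was selected cloned or expressed and not failed if soluble or beyond.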

Question: For “VKRKGVEVIIALDISNSMLAQDVQPSRLEKAKRLISRLVDELDNDKVGMIVFAGDAFTQLPITSDYISAKMFLESISPSLISKQGTAIGEAINLATRSFTPQEGVGRAIIVITDGENHEGGAVEAAKAAAEKGIQVSVLGVGMPEGAPIPVEGTNDYRRDREGNVIVTRLNEGMCQEIAKDGKGIYVRVDNSNSAQKAISQEISKMAKSDVE”, which protein production is on record?
Answer: Its protein production is “not failed”.

Question: With “SASYLILRNYRNSIEGLIEKGIRDEEFIPYYQPIVDSRTQEVVGYEVLLRWQKGHQLVPPSLFISAAEDSGLVVKITNQLIQQVHRDLAQIPAPRWVSINVVADHLEQHHLTHLLEELHWPYSERLKFELTERVPIKAMTQAQEEVFYLLKKGYQFKIDDFGTGYGGFAYLQNLQISSIKIDKMFVDTINTHDVKISVLDSIIASAQGGNIEVIAEGVEHQYQVDYLAERNVFWIQGYFYAKP” as the sequence, how does the protein production read?
Answer: The protein production was “failed”.

Question: For “MSLYTFKELKRATKQDTVSLPKLKVALLGDTATQLLATAIKGEGILRNYNIELWEAEYNQVERQIMDPTSDYYQFEPDYTIIFHSTHKLLEKHSLVNSDLQNKLADDRLDFVRLLCEQGIGRVIYYNYPEIEDTIWGSYATKVQSSFTYQLTKLNYELMNISQAYPNFFICNLAGISAKYGRNFMFDSSVYVNTEIILSLDALPIISSRTIDIIAAIQGKFKKCLILDLDNTIWGGVVGDDGWENIQVGHGLGIGKAFTEFQEWVKKLKNRGIIIAVCSKNNEGKAKEPFERNPEMVLKLDDIAVFVANWENKADNIRTIQRTLNIGFDSMVFLDDNPFERNMVREHVPGVTVPELPEDPGDYLEYLYTLNLFETASFSEGHHHHHH”, which protein production is on record?
Answer: Its protein production is “not failed”.

Question: With “MSAFDFNFQPSINQQDVLDFTDLRFIGKYENIVFLDSNVVSKNRISTYFIKCHHLKENLRKAKLENSLENRLKHYSKYKLLIIDEIGYLPIGSEAAKIFFQINRFKVLEHHHHHH” as the sequence, how does the protein production read?
Answer: The protein production was “not failed”.

Question: With “MKSKTIRRWSFIHTWTSLICTVFLLMLALTGLPLIFHHEIDHLLGDSPELREMPADTPHLDLQQLVKAAEAHRPGEVMQYFGWDEDEPNGVMTIMARTAGTEPNASHTFMLDARTGEAVAMPSANGGLMMVMLRLHVDMFAGLPGKLLLAFMGILFVLAIISGTVLYLPFMRRLKFATVRQDKSSRLRWLDLHNLIGVVTLTWALVVGVTGVISACADLIIAAWRNDSLSAMVAPYRDAPPLTSLAPASRLLDIAREAAPGMQPDFIAFPGTRFSSEHHYAVFLKGSSHLTSHLLTPVLIDASSLQVTAVAGRPWYMDAMGMSQPLHFGDYGGMPMKVLWAAMDMLTIIVLGSGLYLWLARRRAGKSMPQVRP” as the sequence, how does the protein production read?
Answer: The protein production was “failed”.

Question: With “MRGKQSHMSCEHYSNNCLVRFECCSSLYPCRLCHDKAEAHRANRYEVSQIVCGTCNLLQPKTQTCLQCLAAVSKYFCSKCNLWDSSDDQIFHCDGCNVCRRGDPKSSFHCDICQTCLVTRGPRDHTHVENTASGNCPICAEEMSESMEVLVLLRCGHSLHERCFNEFIKETYTCPMCSKPIGDTSIINRKVECLLGMEPPSPEQSPKNIAKCTNCNNLSKCGAIQNKCPFCGLRGVVDAAQEKNVKSQCLKPEE” as the sequence, how does the protein production read?
Answer: The protein production was “failed”.

Question: With “MTNGGGGMSSGEGFRRRSSGEGFPAREFRWWVSGDRVFPRGFFGEGVQVGVPTVVSGEGVPAKVPGGDFSGKKVPAVVFRRVSSSDGGGRGSGGGGGGGSGLGW” as the sequence, how does the protein production read?
Answer: Its protein production is “failed”.

Question: Which protein production does the source give for “IQPTYTSTTRIYVVNQATDNNNLSAQDLQAGTYLANDYKEIITSNDVLSEVIKDEKLNLSEAELSKMVSVNIPTDTRLISISVNAKTGQDAQTLANKVREVASKKIKKVTKVEDVTTLEEAKLPESPSSPNIK” here?
Answer: The protein production was “failed”.

Question: Which protein production does the source give for “MKNAFLYFLLYYRMLTTYYEWFVIVCFPQIRKICCYNEDTKTNAMEAIMKKLIGIATAAVFGLGIFTSSANAETVVTTDVLNVRENPTTESKVVGKLLNGNKIDVQNTENGWSKITLDGKDAFVSAEFTKSIYYVTANVLNVRAEANTNSEILGTLKKDDMIETTNQVQNEWLQFEYNGKTAYVHVPFLTGTAPVIEKQEQPAPAKAQAPAQAPAAQAKQAAKPAVKAAETNTPSGGRELTVVATAYTAHPSENGGTYGGRVLTAMGHDLTANPNMKMIAVDPKVIPLGSKVWVEGYGEAIAGDTGGAIKGNRIDILLGSDSAAQKWGRKTVKVKILK” here?
Answer: Its protein production is “failed”.

Question: For “MTVEEAIALVEQLLSGTRLTKVQEIVFRQCWAGQTYSDIALESDYDLGYIKDVGSELWRSLSQALGEKVTKKNLYTVLKRAAKQNSINPSSSLQLPSLANYTDWGEAIDVSQFYGRTHDLATLSRWVLQDNCRVVSLLGMGGIGKTALSVKLAQQLQGQFEYVIWRSLRHAPSFSDKLTECIKILSNQQVTTLPASSHEQITYLIEYLRKSRCLLILDNFDTLLQDGKRAGSYRQGYEPYGELLWRLGETQHQSCVLITSREKPAQIAALEGDGLPVRTLALSGLEVAAGQTILTLKGLSGSEDQTRQLVECYGGNPLALKIAATSIRDLHEGSIANFLSEGTTVFQGIGHLLEDQFQRLSTLEQQLMYWLAINREKVSSTKLQTAFTSPLSKPKLIETLESLRWRSLIESNTGQFTQQPVVMEYVTDSLVEQVCQEIITESPQYLLTHALMQVQAKDYIRDSQINLIVCPILKQLQITLGSVHQLDLKLGRLIRKLQSKVIETVGYGGGNLLNLLAQLDTDLTGYDFSGLDMRECDLRTVNLHAVNFTQTTFRDCVFAATFGGITSVAFSRDGCQLATSDTSGVINIWDVNNGKQLFNCQEHNSWIWDVAFSSVAPVLASCGQDHTIKLWNTTTGECFNTLHGHTSIVTSVAFSPEGKLLASSSYDHSVKVWDLDTGECLQTFLGHDACVWSVVFHPVGQILATAGEDNTIKLWELQSGCCLKTLQGHQHWVKTIAFNSGGRILASGSFDQNVKLWDIHTGKCVMTLQGHTGVVTSVAFNPKDNLLLSGSYDQSVKVWDRKTGRCLDTLKKHTNRIWSVAFHPQGHLFVSGGDDHAAKIWELGTGQCIKTFQGHSNATYTIAHNWEHSLLASGHEDQTIKLWDLNLHSPHKSNVNTHPFRILQGHSNRVFSVVFSSTGQLLASGSADRTIKLWSPHTGQCLHTLHGHGSWVWAIAFSLDDKLLASGSYDHTVKIWDVSSGQCLQTLQGHPGSVLAVAFSCDGKTLFSSGYEKLVKQWDVETGYCLQTWEADSNRVWAVAVSRDNQYLATGGDDSVVRLWDIGKGVCVRTFSGHTSQVICILFTKDGRRMISSSSDRTIKIWNVSTGECLATLQAHDHWVWSLYLTPDEKTLLSSSWDETIKCWNISTGECWQTLRPARPYEGMIINEVVGLSQAQIATLKALGALEVN”, which protein production is on record?
Answer: Its protein production is “failed”.

Question: For “MEQNITLKDRSKLVISGVEHIYSFNDKRVELKTSVGEMVIEGENLDMSKLSIDENIISIDGTINSMVYAKPKKPQESFLKKVFR”, which protein production is on record?
Answer: Its protein production is “failed”.

Question: For “MVRADEMMDICMLAGEIMLINGAETYRVEETLERMAKAGQFRNVHSFVTTTGIFLSFEEEGAGDVMQMIRVDDRMQDLNKVTLVNQVSREFVNGEIDAAEALTKLQNIAKQPMNYSPLLLHTASGVAGGAFSYLFGGNLFDTLPAFIAGFVASMAVVHLQSYLKVRFFAEFMAAFTGGAVAILLVLIGLGENVDQVIIGTLMPLVPGIPLTNAVRDLISGDLLAGVTRGAECFVTSLSIATGIALAIALLS”, which protein production is on record?
Answer: Its protein production is “failed”.

Question: For “MSLSDWHLAVKLADQPLAPKSILQLPETELGEYSLGGYSISFLKQLIAGKLQESVPDPELIDLIYCGRKLKDDQTLDFYGIQPGSTVHVLRKSW”, which protein production is on record?
Answer: The protein production was “not failed”.

Question: Which protein production does the source give for “MQDFDFSFNPKACEGCGAKCCVGESGYIFLNIQEMQQISAFLKLELEEFSQKYVKKVGYKFSLLEKDAKELGLACVFLDLETKKCQIYSVRPKQCQTFPFWEGVKTFSKEQKEAFCQSCPGITQKTKETKVR” here?
Answer: Its protein production is “failed”.

Question: With “FYTPSFITSYMCKESITPIVLDKFNAIYQWDCENLKALRGEIDRNFSNEKAKEYLNTLLTLRICDPAVGSGHFLVSALNEMVRVAYELGLIASLYRYDLKLENDEIIIHHTPTGEIFNYIKPDSENDPHHHIQKELFNLKKSIIENCLFGVDINPNSCEITKLRLWIELLKYSYYIFEKGKNTNALETLPNIDINIKCANSLISRFALKDKALLKSEKNKNLEYSIAEYKELVKIYKDPKILETLTHPIKDSNAVRKYAKERLYQELKQNPNKDFKKALNDRIEKIKKAFKLTLNPPPKELKFKKFLKEHLELYGKSILEEANYNGLELEALALEKQMANLFFDYRPYPKLDKSDKVVGLEHFNRYVLTSYKDLQDENERYANALEWRFEFPEVLDDEGDFSGFDCIIGNPPYIRQEHIKDLKPLLEKQYQDFYNSTADIYTYFFALAFHLLKEKGFSAFITSNKYTRAKYGAKLREWLLKKTTIVSYMELNALKVFESAAVDTSIIHFIKQTPSKESEFKYYEPTPNDKDDLKSTPHLLMKQNVLST” as the sequence, how does the protein production read?
Answer: The protein production was “failed”.

Question: With “MLRNNLGNSSDSKNEDGSVFSQTEHNIVATYLIMAGMISIISNIIVLGIFIKYKELRTPTNAIIINLAVTDIGVSSIGYPMSAASDLYGSWKFGYAGCQVYAGLNIFFGMASIGLLTVVAVDRYLTICLPDVGRRMTTNTYIGLILGAWINGLFWALMPIIGWASYAPDPTGATCTINWRKNDRSFVSYTMTVIAINFIVPLTVMFYCYYHVTLSIKHHTTSDCTESLNRDWSDQIDVTKMSVIMICMFLVAWSPYSIVCLWASFGDPKKIPPPMAIIAPLFAKSSTFYNPCIYVVANKKFRRAMLAMFKCQTHQTMPVTSILPMDVSQNPLASGRI” as the sequence, how does the protein production read?
Answer: Its protein production is “failed”.

Question: For “MMKKTAAIISACMLTFALSACSGSNYVMHTNDGRTIVSDGKPQTDNDIGMISYKDANGNKQQINRTDVKEMVELEQLEHHHHHH”, which protein production is on record?
Answer: The protein production was “failed”.

Question: For “MKSAYIFFNPKSGKDEQALAKEVKSYLIEHDFQDDYVRIITPSSVEEAVALAKKASEDHIDLVIPLGGDGTINKICGGVYAGGAYPTIGLVPAGTVNNFSKALNIPQERNLALENLLNGHVKSVDICKVNDDY”, which protein production is on record?
Answer: The protein production was “failed”.

Question: Which protein production does the source give for “LRQSQQMLQLVMDTIPHSVFWKDRNSVFLGCNRNFAIMVGYEHPENLIGKTDYDFLPDPRNADLYRQCDARIIETNNPEYHIIEPMLAPDGQQIWLETNKVPLHDPEGNVVGVLGTFEDITERKQVQEA” here?
Answer: The protein production was “failed”.

Question: For “MPTPAYMSINGETQGHITKDTYSADSVGNTWQEAHVDEFLVQELDHVLTVPRDPQSGQPTGQRVHRPLVVTKVQDRSSPLLFNALVSGEKLPECLIRFYRTSVQGKQEHYYSIKLIDALLVDIQTRMNHCQDAATADRVTEEVLKFTYRAIEVTHENCGTAGNDDWRAPREA”, which protein production is on record?
Answer: Its protein production is “failed”.

Question: Which protein production does the source give for “MDDVQVERILQNPKFKKMVSKKATLSWTLTIIMLIVYVGFMLLVGYNKEFLMSSFSGGVTTWGIPLGLGIIVLSFVLCGVYSYIANNTLDQLNEEALREVENITHEKGLH” here?
Answer: The protein production was “failed”.

Question: For “MEKNVTPMIRQYLDIKKKYKDAVLFFRVGSFYEMFFDDAIEVSKLLNLTLTKRENVPMCGVPYHTSKEYIRKLILFDKKVAICEQASNSTSGGPLEREVVEVITPGVIIDEDFLNDDINNYLVAISDYKDYYSFSYIDLSTSSLGIMFYENGFFEKLKRDLEKYSPKEIIVSENFYYEYSEKLNLSRFLINRVPTWHLDKDIAIKTIKEHFNILGLSSLGFDEEKPYYISIFLIINHIKNNLKNLLSNIDKIDINNDSSYMFLDDVTQVNLELVKNNNDFSSQYSLYSVLNDCKTAMGKRLLREFILNPILNISEINTRLDHVEFFCKNISLTVTLRETFINIWDIERIISRIQMKRYIKKDFLFIEKALSVFFTVKKLFDKHNFDYWNFDKFEEDSISKVYFLINSAISSAPDELIKRGYDLKLDNLKDLKINANKYIDQYLESERLLSKINNLKIRKTNNRGLFFEVTKSNYAQVPPHFMESQALNSSKRYKTEKLISLEVDINNAEDNVVAFEQEIFDEIASNVVMHNKVLKKVAEFFAYIDLVVNFGYLAKKNEYKRPVLTSGKEILLEKSRHPVVEHYTKNTEIFTENFVRINKEKYFCLITGPNMAGKSTYLRQVALITLMAHIGSFVPASKALIGITDKIFCRIGASDNIAKGESTFLVEMNETANILRNATEKSLIIMDEVGRGTSTNDGLAIAYSIIEYILEYIKARSLFATHFHELSSINHQAFINLSMKIEKQGNDLVFLREVEEKPSLNSYGIYVARIAGLPLRVIDRANVILESLVGREGNSCLEFLPHVSSDGNDKEILKNDTDIHIKLNEYLELKNFISNIDINNITPFQSIELLNQIVLKVISQSS”, which protein production is on record?
Answer: Its protein production is “failed”.
